System: Escherichia coli TOP10
Experiment: shrunken log2 fold change of peptide-encoding DNA abundance (4.5 h post-induction vs induction); higher = less antimicrobial activity (less host growth inhibition)
Conditions: time post-induction: 4.5 h; library: site-saturation at positions 5, 18, 19, 20
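Further: peptides expressed intracellularly from a pBAD plasmid library in pooled LB shake-flask culture, induced with 0.3% L-arabinose, DNA abundance read by NGS, three biological replicates, DESeq2 with apeglm shrinkage.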

Sequence	shrunken log2 fold change
RRIRWRPPRLPRPRPRPIDFPRP	-3.4e-05
RRIRKRPPRLPRPRPRPFHLPRP	0.0215
RRIRTRPPRLPRPRPRPAWPPRP	0.444
RRIRYRPPRLPRPRPRPCFHPRP	-1.42
RRIRARPPRLPRPRPRPMDCPRP	0.181
RRIRQRPPRLPRPRPRPKTDPRP	-0.326
RRIRWRPPRLPRPRPRPQAIPRP	0.204
RRIRPRPPRLPRPRPRPQAKPRP	0.277
RRIRSRPPRLPRPRPRPHYAPRP	-0.247
RRIRGRPPRLPRPRPRPHLDPRP	0.34
RRIRQRPPRLPRPRPRPDRPPRP	0.00639
RRIRGRPPRLPRPRPRPYQGPRP	0.0167
RRIRGRPPRLPRPRPRPIADPRP	0.16
RRIRMRPPRLPRPRPRPGFHPRP	-0.039
RRIRHRPPRLPRPRPRPFEFPRP	-0.0195
RRIRHRPPRLPRPRPRPCFSPRP	0.0626
RRIRWRPPRLPRPRPRPHYYPRP	-0.581
RRIRPRPPRLPRPRPRPKWEPRP	-0.0741
RRIRSRPPRLPRPRPRPYYDPRP	-0.214
RRIRARPPRLPRPRPRPICSPRP	0.251

Sequence	shrunken log2 fold change
RRIRWRPPRLPRPRPRPKRDPRP	0.696
RRIRCRPPRLPRPRPRPADHPRP	0.0117
RRIRARPPRLPRPRPRPPAFPRP	1.04
RRIRHRPPRLPRPRPRPYRIPRP	-0.231
RRIRGRPPRLPRPRPRPCNWPRP	0.101
RRIRNRPPRLPRPRPRPPHIPRP	-0.311
RRIRTRPPRLPRPRPRPQWKPRP	0.0581
RRIRDRPPRLPRPRPRPDSMPRP	0.00619
RRIRNRPPRLPRPRPRPCMLPRP	-0.306
RRIRLRPPRLPRPRPRPFEFPRP	-0.119
RRIRKRPPRLPRPRPRPYQEPRP	0.0431
RRIRKRPPRLPRPRPRPMWGPRP	-0.0954
RRIRDRPPRLPRPRPRPMCRPRP	-0.0461
RRIRARPPRLPRPRPRPKLKPRP	0.272
RRIRWRPPRLPRPRPRPWYPPRP	0.0299
RRIRWRPPRLPRPRPRPRQGPRP	0.582
RRIRSRPPRLPRPRPRPKNIPRP	-0.314
RRIRSRPPRLPRPRPRPRLFPRP	0.376
RRIRHRPPRLPRPRPRPFAEPRP	-0.0659
RRIRERPPRLPRPRPRPHNMPRP	-0.51

Sequence	shrunken log2 fold change
RRIRQRPPRLPRPRPRPCEEPRP	-0.0216
RRIRLRPPRLPRPRPRPLPYPRP	0.514
RRIRLRPPRLPRPRPRPFSLPRP	-0.127
RRIRLRPPRLPRPRPRPACVPRP	0.131
RRIRSRPPRLPRPRPRPMRWPRP	0.664
RRIRDRPPRLPRPRPRPQQNPRP	-0.452
RRIRTRPPRLPRPRPRPLLNPRP	-0.157
RRIRWRPPRLPRPRPRPELCPRP	0.579
RRIRCRPPRLPRPRPRPKLAPRP	0.551
RRIRIRPPRLPRPRPRPGPTPRP	0.175
RRIRGRPPRLPRPRPRPVMTPRP	1.8
RRIRYRPPRLPRPRPRPSVCPRP	-0.769
RRIRSRPPRLPRPRPRPTWHPRP	0.179
RRIRWRPPRLPRPRPRPNPLPRP	3.58e-05
RRIRWRPPRLPRPRPRPFYTPRP	-0.575
RRIRWRPPRLPRPRPRPAYKPRP	-0.182
RRIRMRPPRLPRPRPRPEKPPRP	1.34
RRIRDRPPRLPRPRPRPHLNPRP	-0.152
RRIRPRPPRLPRPRPRPNPGPRP	0.0588
RRIRWRPPRLPRPRPRPETFPRP	0.0493

Reference: the supplement of paper PMC9112550, “Optimization of the antimicrobial peptide Bac7 by deep mutational scanning” (BMC Biology, 2022)
